Reference: FireProtDB (doi:10.1021/bi00118a013)

Settings: Aspergillus oryzae (strain ATCC 42149 / RIB 40), pH 7, Fluorescence, MOPS 30 mM, reversible: yes, whole UniProt chain shown

B1: Guanyl-specific ribonuclease T1 wild type, P00651 (protein)
chain: MMYSKLLTLTTLLLPTALALPSLVERACDYTCGSNCYSSSDVSTAQAAGYQLHEDGETVGSNSYPHKYNNYEGFDFSVSSPYYEWPILSSGDVYSGGSPGADRVVFNENNQLAGVITHTGASGNNFVECT
25 °C, Urea
  denaturant m value: 1.21 kcal/mol/M
  denaturant midpoint (higher = more stable): 5.3 M
Thermal
  Tm: 50.9 °C
  unfolding enthalpy (van 't Hoff): 460 kJ/mol
